Measured values: US4981788A, “Novel acetylpolyamine amidohydrolase” (Kyowa Hakko Kogyo Co., Ltd., priority 1987, dated 1991)

B1: acetylpolyamine amidohydrolase (the present enzyme, partially purified product) (Mycoplana ramosa) (protein)
chain: MRVIFSEDHKLRNAKTELYGGELVPPFEAPFRAEWILAAVKEAGFDDVVAPARHGLETVLKVHDAGYLNFLETAWDRWKAAGYKGEAIATSFPVRRTSPRIPTDIEGQIGYYCNAAETAISPGTWEAALSSMASAIDGADLIAAGHKAAFSLCRPPGHHAGIDMFGGYCFINNAAVAAQRLLDKGAKKIAILDVDFHHGNGTQDIFYERGDVFFASLHGDPAEAFPHFLGYAEETGKGAGAGTTANYPMGRGTPYSVWGEALTDSLKRIAAFGAEAIVVSLGVDTFEQDPISFFKLTSPDYITMGRTIAASGVPLLVVMEGGYGVPEIGLNVANVLKGVAG
notes: novel acetylpolyamine amidohydrolase of the present invention accumulated within the grown cells; made in house; host or cells: Mycoplana (natural producer; cells grown in culture)
B2: acetylpolyamine amidohydrolase (the present enzyme, product purified to homogeneity) (Mycoplana ramosa) (protein)
chain: B1 chain
notes: novel acetylpolyamine amidohydrolase of the present invention accumulated within the grown cells; made in house; host or cells: Mycoplana (natural producer)

How the values were obtained:
Format in all cases: biochemical, Mycoplana bullata
[1] = substrate: CC(=O)NCCCCCN; experiment: Enzyme activity on acetylpolyamine substrates, partially purified product (substrate specificity, optimum pH/temperature, Km); conditions: other: pH 7.0, Lineweaver-Burk plot
Protocol: (§1) Activity of the present enzyme (partially purified products) is measured according to the following procedure. That is, 0.1 ml of an enzyme solution is added to a reagent solution consisting of 1.5 ml of 0.1 M phosphate buffer (pH 7.0), 0.05 ml of 50 mM acetylpolyamine, 0.4 U of putrescine oxidase (when acetylputrescine, acetylcadaverine or acetylspermidine is used as substrate) or polyamine oxidase (when acetylspermidine or acetylspermine is used as substrate), 0.5 ml of 2.4 mM 4-aminoantipyrine, 0.5 ml of 42 mM phenol and 20 U of peroxidase. The mixture is incubated at 37° C., and the absorbance of quinoneimine pigment formed at 500 nm is measured.
(§2) In terms of the enzyme activity, the amount of enzyme that can hydrolyze 1 μmole of a substrate in one minute is defined as one unit (1 U).
(§3) The relative activities of acetylpolyamine amidohydrolases against various type of acetylpolyamine, defining the activities against acetylputrescine as 100 under a condition of pH 7.0, are as shown in Table 1 below.
(§4) Enzyme activity was measured at different pH levels ranging from 6 to 10 by using bis-Tris propane buffer solutions. The optimum pH was 9 for acetylputrescine and acetylcadaverine, and 8 for N^1 -acetylspermidine, N^8 -acetylspermidine and acetylspermine, as shown in FIG. 1.
(§5) The optimum working temperature for the present enzyme was about 50° C., when the relative activity was determined, using acetylputrescine as substrate, as shown in FIG. 4. The optimum temperatures for the other acetylpolyamine amidohydrolases were 30° to 40° C. This clearly distinguishes the present enzyme from the known enzymes.
(§6) Km values of the present enzyme and the other known enzymes for various types of acetylpolyamine at pH 7.0 were determined from the Line weaver-Burk plot [refer to J. Am. Chem. Soc., 56, 658 (1934)].

[2] = substrate: CC(=O)NCCCCNCCCN; experiment: as above; conditions: other: pH 7.0, Lineweaver-Burk plot
Protocol: as §1, §2, §3, §4, §5, §6

[3] = substrate: CC(=O)NCCCNCCCCN; experiment: as above; conditions: other: pH 7.0, Lineweaver-Burk plot
Protocol: as §1, §2, §3, §4, §5, §6

[4] = substrate: CC(=O)NCCCCCN; experiment: Enzyme activity on acetylpolyamine substrates, product purified to homogeneity (Method 2 / Method 3); conditions: other: pH 9.0, Lineweaver-Burk plot
Description: (§7) [Method 2] (Assay when acetylputrescine, acetylcadaverine, N^1 -acetylspermidine and N^8 -acetylspermidine are used as substrate:)
(§8) The acetylpolyamine can be hydrolyzed by the acetylpolyamine amidohydrolase, as described in [Method 1], and the corresponding free polyamine thus formed is then oxidized by putrescine oxidase. Putrescine oxidase derived from Micrococcus rubens is known to have an activity upon putrescine, cadaverine and spermidine [Adachi, et al., Agric. Biol. Chem, 30, 1202 (1966)]. […] The actual analytical procedure is as described below.
(§9) The above reagents, (b) through (h), were put in a cuvette (d: 1.0 cm) and the mixture was preincubated at 37° C. for 2 minutes. The substrate solution (a) was then added, and the resulting mixture was incubated at 37° C. Absorbance at 500 nm was measured over a period of 3 to 5 minutes, and the change in absorbance per minute (ΔODsample) was determined from the linear portion of the plotted curve. For control, the same procedure as above was carried out, using distilled water as reference.
(§10) One unit of acetylpolyamine amidohydrolase is defined as its amount necessary to hydrolyze 1 μmole of acetylputrescine at 37° C. for one minute (or the amount necessary to form 0.5 μmole of quinoneimine pigment formed in the method for measuring the enzyme activity described above).
(§11) [Method 3] (Assay when acetylspermine is used as substrate:)
(§12) Acetylspermine is hydrolyzed by the action of acetylpolyamine amidohydrolase into free form of spermine. The free form of spermine can be oxidized by a polyamine oxidase derived from Aspergillus terreus to produce hydrogen peroxide. […] Thus, the enzyme activity can be measured by quantitative determination of the hydrogen peroxide according to the method described above. […]
(§13) Reagents (b) through (d) given in item (1) were put in a test tube and the mixture was preincubated at 37° C. for 2 minutes. […] A sample solution (200 μl), taken from the eluate containing free form of spermine, was mixed in a cuvette with reagents (a) through (e) given in item (2) above, the mixture was incubated at 37° C. for 10 minutes, and the absorbance at 755 nm was measured. […]
(§14) The concentration of free form of spermine in the reaction mixture can be determined from a calibration curve previously prepared on the basis of aqueous soluitons of free form of spermine with different concentrations. […]
(§15) The activities upon acetylputrescine, acetylcadaverine, N^1 -acetylspermidine and N^8 -acetylspermidine were measured by [Method 2] in a phosphate buffer (pH 9.0) at a substrate concentration of 0.833 mM, and the activity upon acetyl-spermine was measured by [Method 3] under the same conditions. […] Km values, determined from the Lineweaver-Burk plot, are also listed in the same table. […]

[5] = substrate: CC(=O)NCCCCN; experiment: as above; conditions: other: pH 9.0, Lineweaver-Burk plot
Description: as §7, §8, §9, §10, §11, §12, §13, §14, §15

[6] = substrate: CC(=O)NCCCCNCCCN; experiment: as above; conditions: other: pH 9.0, Lineweaver-Burk plot
Description: as §7, §8, §9, §10, §11, §12, §13, §14, §15

[7] = substrate: CC(=O)NCCCNCCCCN; experiment: as above; conditions: other: pH 9.0, Lineweaver-Burk plot
Description: as §7, §8, §9, §10, §11, §12, §13, §14, §15

Row | Protein | Km [1] [µM] | Km [2] [µM] | Km [3] [µM] | Km [4] [µM] | Km [5] [µM] | Km [6] [µM] | Km [7] [µM]
1 | B1 | 130 | 560 | 270 | – | – | – | –
2 | B2 | – | – | – | 50 | 220 | 310 | 130
